Assay results as given in patent US20250051476A1 (ABDERA THERAPEUTICS, published 2025).
Like-named read-outs stand apart in the source and are kept apart here.

T1: hDLL3 EGF1-6 (aa 216-492) fused to mIgG2a CH2-CH3 Fc (human)
T1 construct: also called DLL3 EGF1-6(mIgG2aCH2-CH3); hDLL3 EGF domain construct
T1 chain: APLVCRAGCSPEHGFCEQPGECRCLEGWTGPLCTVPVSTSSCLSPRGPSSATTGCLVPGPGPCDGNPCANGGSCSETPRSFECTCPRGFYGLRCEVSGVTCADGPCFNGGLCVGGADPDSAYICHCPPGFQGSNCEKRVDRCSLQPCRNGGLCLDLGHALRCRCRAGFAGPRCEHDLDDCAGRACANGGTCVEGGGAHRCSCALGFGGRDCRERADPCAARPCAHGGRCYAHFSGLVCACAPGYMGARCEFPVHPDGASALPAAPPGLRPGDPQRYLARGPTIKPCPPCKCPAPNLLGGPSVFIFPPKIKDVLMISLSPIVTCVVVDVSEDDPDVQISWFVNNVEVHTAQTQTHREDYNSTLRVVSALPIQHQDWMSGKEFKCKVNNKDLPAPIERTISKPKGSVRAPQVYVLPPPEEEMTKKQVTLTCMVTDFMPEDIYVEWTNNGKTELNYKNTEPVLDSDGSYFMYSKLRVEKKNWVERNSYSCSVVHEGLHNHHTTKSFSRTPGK

T2: human DLL3 on cells (human, UniProt Q9NYJ7 27-618)
T2 sequence (looked up): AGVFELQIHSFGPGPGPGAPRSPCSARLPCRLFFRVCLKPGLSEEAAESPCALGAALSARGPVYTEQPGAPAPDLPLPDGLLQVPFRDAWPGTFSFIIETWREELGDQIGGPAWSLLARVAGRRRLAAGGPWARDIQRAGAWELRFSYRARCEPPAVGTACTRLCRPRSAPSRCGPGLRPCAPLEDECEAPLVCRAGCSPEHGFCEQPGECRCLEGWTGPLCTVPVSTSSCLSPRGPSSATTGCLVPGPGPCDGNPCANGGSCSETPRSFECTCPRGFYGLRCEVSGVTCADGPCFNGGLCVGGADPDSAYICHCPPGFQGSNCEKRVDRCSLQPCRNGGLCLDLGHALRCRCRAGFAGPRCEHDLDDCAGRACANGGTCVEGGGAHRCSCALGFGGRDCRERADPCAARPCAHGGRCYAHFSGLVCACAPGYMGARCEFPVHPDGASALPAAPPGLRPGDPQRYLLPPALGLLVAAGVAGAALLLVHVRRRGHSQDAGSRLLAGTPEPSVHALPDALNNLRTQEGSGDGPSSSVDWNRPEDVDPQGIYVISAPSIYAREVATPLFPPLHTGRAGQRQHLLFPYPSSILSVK

T3: DLL3 on cells (SHP-77, NCI-H82, HEK-DLL3, membrane proteome array cells) (human, UniProt Q9NYJ7 27-618)
T3 construct: whole, on cells; also called hDLL3
T3 sequence (looked up): T2 sequence (looked up)

T4: DLL3 EGF1-6(mIgG2aCH2-CH3) (human)
T4 construct: also called hDLL3 EGF domain construct; DLL3 EGF1-6 domain
T4 chain: T1 chain

T5: mouse DLL3 (mouse, UniProt O88516 25-477, limits assumed)
T5 construct: also called mDLL3; murine DLL3
T5 sequence (looked up): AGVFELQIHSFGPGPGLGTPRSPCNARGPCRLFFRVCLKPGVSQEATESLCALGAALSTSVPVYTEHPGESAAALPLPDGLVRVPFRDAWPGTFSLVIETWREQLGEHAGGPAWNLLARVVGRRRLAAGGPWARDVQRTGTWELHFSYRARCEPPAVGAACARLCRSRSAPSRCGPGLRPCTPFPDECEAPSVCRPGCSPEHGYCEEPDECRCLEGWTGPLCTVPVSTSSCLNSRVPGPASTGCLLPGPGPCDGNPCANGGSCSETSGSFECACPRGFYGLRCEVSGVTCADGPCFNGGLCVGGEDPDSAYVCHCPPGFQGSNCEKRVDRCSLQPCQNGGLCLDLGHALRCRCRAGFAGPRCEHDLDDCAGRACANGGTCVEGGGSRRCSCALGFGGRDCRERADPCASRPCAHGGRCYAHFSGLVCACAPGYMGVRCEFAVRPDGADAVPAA

B1: 107 (Fc fusion)
VHH-Fc chain: QVQLVESGGGLVQAGDSLRLSCVASDRTFSSYAVGWFRQAPGKEREFVAAISWNGGRTLYTDSVTGRFTISRDNAKSTVYLQMNGLKPEDTAVYYCAARPAAPTRRLEYDYWGQGTQVTVSS
notes: same clone as 1.m45, 2.m28, 3.m30, 3.m55, 4.m13
B2: Clone 107 VHH-Fc with H435Q Fc (Fc fusion)
chain: QVQLVESGGGLVQAGDSLRLSCVASDRTFSSYAVGWFRQAPGKEREFVAAISWNGGRTLYTDSVTGRFTISRDNAKSTVYLQMNGLKPEDTAVYYCAARPAAPTRRLEYDYWGQGTQVTVSSAPELLGGPSVFLFPPKPKDTLMISRTPEVTCVVVDVSHEDPEVKFNWYVDGVEVHNAKTKPREEQYNSTYRVVSVLTVLHQDWLNGKEYKCKVSNKALPAPIEKTISKAKGQPREPQVYTLPPSREEMTKNQVSLTCLVKGFYPSDIAVEWESNGQPENNYKTTPPVLDSDGSFFLYSKLTVDKSRWQQGNVFSCSVMHEALHNQYTQKSLSLSPG
B3: 24 (Fc fusion)
VHH-Fc chain: QVQYVESGGGLVQPGGSLRLSCAASGFTFSSYRINWYRQPPGKGRELVGSITDTGSTNYADSVKGRFTISRDNAKNTVYLQMSSLKPEDTAVYYCRAPTIAAYWGQGTQVTVSS
notes: same clone as 1.m43, 2.m5, 3.m7, 3.m51, 4.m1; also called Clone 24
B4: Clone 100 VHH-Fc with H435Q Fc (Fc fusion)
chain: QVQLVESGGGSVQPGGSLRLSCAASGIVFNSDVMGWYRQVPGKPRELVATITGGGSTNYATSVKGRFTISRDNAKNTVYLQMNSLRPEDTAVYYCNGRRGDSMLAFWAQGTQVTVSSAPELLGGPSVFLFPPKPKDTLMISRTPEVTCVVVDVSHEDPEVKFNWYVDGVEVHNAKTKPREEQYNSTYRVVSVLTVLHQDWLNGKEYKCKVSNKALPAPIEKTISKAKGQPREPQVYTLPPSREEMTKNQVSLTCLVKGFYPSDIAVEWESNGQPENNYKTTPPVLDSDGSFFLYSKLTVDKSRWQQGNVFSCSVMHEALHNQYTQKSLSLSPG
B5: 107_zu2 (Fc fusion)
chain: QVQLVESGGGLVQPGGSLRLSCAASDRTFSSYAVGWFRQAPGQGLEFVAAISWNGGRTLYTDSVTGRFTISRDNSKNTLYLQMNSLRAEDTAVYYCAARPAAPTRRLEYDYWGQGTLVTVSSEPKSSDKTHTCPPCPAPEAEGAPSVFLFPPKPKDTLMISRTPEVTCVVVDVSHEDPEVKFNWYVDGVEVHNAKTKPREEQYNSTYRVVSVLTVLHQDWLNGKEYKCKVSNKALPSSIEKTISKAKGQPREPQVYTLPPSREEMTKNQVSLTCLVKGFYPSDIAVEWESNGQPENNYKTTPPVLDSDGSFFLYSKLTVDKSRWQQGNVFSCSVMHEALHNQYTQKSLSLSPG
notes: Humanized VHH-Fc
B6: 126_zu2 (Fc fusion)
chain: QVQLVESGGGLVQPGGSLRLSCAASGITFSMYSMSWFRQAPGQGLELVAATTTFGSTNYADSVKGRFTISRDNSKNTLYLQMNSLRAEDTAVYYCAARFTSEEYWGQGTLVTVSSEPKSSDKTHTCPPCPAPEAEGAPSVFLFPPKPKDTLMISRTPEVTCVVVDVSHEDPEVKFNWYVDGVEVHNAKTKPREEQYNSTYRVVSVLTVLHQDWLNGKEYKCKVSNKALPSSIEKTISKAKGQPREPQVYTLPPSREEMTKNQVSLTCLVKGFYPSDIAVEWESNGQPENNYKTTPPVLDSDGSFFLYSKLTVDKSRWQQGNVFSCSVMHEALHNQYTQKSLSLSPG
notes: Humanized VHH-Fc
B7: Clone 186 VHH-Fc with H435Q Fc (Fc fusion)
chain: QVQVVESGGGLVQPGGSLTLSCAASGFDFSTYTVNWYRQAPGKEREKVARISSTGTTTNYANSAKGRFTLSRDNAKNRVYLQMNNLKPEDTAVYFCNFERFDSNYWGQGTQVTVSSAPELLGGPSVFLFPPKPKDTLMISRTPEVTCVVVDVSHEDPEVKFNWYVDGVEVHNAKTKPREEQYNSTYRVVSVLTVLHQDWLNGKEYKCKVSNKALPAPIEKTISKAKGQPREPQVYTLPPSREEMTKNQVSLTCLVKGFYPSDIAVEWESNGQPENNYKTTPPVLDSDGSFFLYSKLTVDKSRWQQGNVFSCSVMHEALHNQYTQKSLSLSPG
B8: Clone 126 VHH-Fc with H435Q Fc (Fc fusion)
chain: QVQLVESGGGMVQPGGSLRLSCAASGITFSMYSMSWYRQPPGKQRELVAATTTFGSTNYADSVKGRFTISRDNAKNTVYLQMNSLKPEDTAVYLCNARFTSEEYWGQGTQVTVSSAPELLGGPSVFLFPPKPKDTLMISRTPEVTCVVVDVSHEDPEVKFNWYVDGVEVHNAKTKPREEQYNSTYRVVSVLTVLHQDWLNGKEYKCKVSNKALPAPIEKTISKAKGQPREPQVYTLPPSREEMTKNQVSLTCLVKGFYPSDIAVEWESNGQPENNYKTTPPVLDSDGSFFLYSKLTVDKSRWQQGNVFSCSVMHEALHNQYTQKSLSLSPG
B9: 126 (parental VHHFc of Example 41) (Fc fusion)
chain: QVQLVESGGGMVQPGGSLRLSCAASGITFSMYSMSWYRQPPGKQRELVAATTTFGSTNYADSVKGRFTISRDNAKNTVYLQMNSLKPEDTAVYLCNARFTSEEYWGQGTQVTVSS
notes: Parental VHHFc; not shown: hinge and Fc
B10: Clone 24 VHH-Fc with H435Q Fc (Fc fusion)
chain: QVQYVESGGGLVQPGGSLRLSCAASGFTFSSYRINWYRQPPGKGRELVGSITDTGSTNYADSVKGRFTISRDNAKNTVYLQMSSLKPEDTAVYYCRAPTIAAYWGQGTQVTVSSAPELLGGPSVFLFPPKPKDTLMISRTPEVTCVVVDVSHEDPEVKFNWYVDGVEVHNAKTKPREEQYNSTYRVVSVLTVLHQDWLNGKEYKCKVSNKALPAPIEKTISKAKGQPREPQVYTLPPSREEMTKNQVSLTCLVKGFYPSDIAVEWESNGQPENNYKTTPPVLDSDGSFFLYSKLTVDKSRWQQGNVFSCSVMHEALHNQYTQKSLSLSPG
B11: 100 (Fc fusion)
VHH-Fc chain: QVQLVESGGGSVQPGGSLRLSCAASGIVFNSDVMGWYRQVPGKPRELVATITGGGSTNYATSVKGRFTISRDNAKNTVYLQMNSLRPEDTAVYYCNGRRGDSMLAFWAQGTQVTVSS
notes: same clone as 1.m44, 2.m24, 3.m26, 3.m53, 4.m7; also called Clone 100

Experiments:
[1] = target: T1, hDLL3 EGF1-6 (aa 216-492) fused to …; test: ELISA on coated hDLL3 EGF1-6-mIgG2a Fc (2 ug/ml), anti-hIgG-Fc-HRP, A450
Procedure: Plates were washed 3 times with dH2O, and blocked with 100 ul 5% skim milk for 1 h, RT. Test VHHFcs and control antibodies were diluted in block in a 1:4 serial titration from 100 nM to 0.01 nM, and incubated for 1 h, RT. […] Plate was washed 3 times with H₂O, and wells incubated with 50 ul TMB substrate for 4-5 min at RT. The reaction was quenched with 50 ul/well 1N HCl. The plate was read on a Synergy Neo2 at absorbance 450 nm.

human DLL3 on cells = target: T2, human DLL3 on cells; test: cell-based or functional assay
[2] = target: T3, DLL3 on cells (SHP-77, NCI-H82, …); test: flow cytometry on SHP-77 cells, Geomeans RL1-H
[3] = target: T3, DLL3 on cells (SHP-77, NCI-H82, …); test: flow cytometry on SHP-77 cells, Geomeans RL1-H; remark: listed apart in the source
[4] = target: T4, DLL3 EGF1-6(mIgG2aCH2-CH3); test: Octet BLI, VHH-Fc captured on AHC sensor, DLL3 EGF1-6-mIgG2a Fc titrated
Procedure: Sensors were regenerated with Glycine pH 1.7 and sample buffer was PBS/0.02% Tween-20/0.1% BSA, pH 7.4. Data was analyzed using Octet Analysis software.

mouse DLL3 = target: T5, mouse DLL3; test: ELISA

Row | Binder | binding result [1] | H435Q-Fc SHP-77 Internalization FOI (human DLL3 on cells) [FOI] | other results
1 | B1 | binds |  | 
2 | B2 |  | 1.27 | 
3 | B3 | binds |  | 
4 | B4 |  | 1.19 | 
5 | B5 |  |  | EC50 (read off the curve) [2]: ~0.2 nM; EC50 (read off the curve) [3]: ~0.2 nM; Kd [4]: 5.04 nM; koff [4]: 0.000513 s⁻¹; kon [4]: 102000 M⁻¹ s⁻¹
6 | B6 |  |  | binding result (mouse DLL3): no binding; EC50 (read off the curve) [2]: ~0.07 nM; EC50 (read off the curve) [3]: ~0.1 nM; binding result [4]: no binding
7 | B7 |  | 1.18 | 
8 | B8 |  | 1.19 | 
9 | B9 | no binding (tested: 100 nM) |  | 
10 | B10 |  | 1.19 | 
11 | B11 | binds |  | 
